Laboratory results taken from article PMC13323077, “Hydrophobic tuning with non-canonical amino acids in a copper metalloenzyme” (Nature Chemistry, 2026).

What was measured:
purified protein [1] = substrate: CC(=O)N1c2ccc(O)cc2Oc2cc(O)ccc21; assay: purified protein; assay type: biochemical, Streptomyces coelicolor; conditions: pH 7.0, 25 °C, 20 mM Britton-Robinson buffer
purified protein [2] = substrate: CCn1c(=NN=c2sc3cc(S(=O)(=O)O)ccc3n2CC)sc2cc(S(=O)(=O)O)ccc21; assay: purified protein; assay type: biochemical, Streptomyces coelicolor; conditions: pH 4.0, 25 °C, 20 mM Britton-Robinson buffer
[3] = 500 µM CuCl2, air O2, 1 µM enzyme
[4] = 1 mM CuCl2, air O2, 1,000 nM enzyme

B1: ScSLAC (Streptomyces coelicolor A3(2)) (protein)
chain: APAAKGITARTAPAGGEVRHLKMYAEKLADGQMGYGFEKGKASVPGPLIEVNEGDTLHIEFTNTMDVRASLHVHGLDYEISSDGTAMNKSDVEPGGTRTYTWRTHKPGRRDDGTWRPGSAGYWHYHDHVVGTEHGTGGIRNGLYGPVIVRRKGDVLPDATHTIVFNDMTINNRKPHTGPDFEATVGDRVEIVMITHGEYYHTFHMHGHRWADNRTGILTGPDDPSRVIDNKITGPADSFGFQIIAGEGVGAGAWMYHCHVQSHSDMGMVGLFLVKKPDGTIPGYEPHEHGGATAKSGESGEPTGGAAAHEHEH
notes: N-terminal signal peptide (residues 2-30) removed, C-terminal His6, pET28, expressed in E. coli B-95deltaAdeltafabR, Cu-loaded; homotrimer (known biology)
Purified protein [1]; [3]
  Km: 0.25(3) mM
  kcat: 0.045(4) min-1
Purified protein [2]; 1 mM CuCl2, air O2, 200 nM enzyme
  Km: 0.96(5) mM

B2: ScSLAC (Streptomyces coelicolor A3(2); M298F) (protein)
chain: APAAKGITARTAPAGGEVRHLKMYAEKLADGQMGYGFEKGKASVPGPLIEVNEGDTLHIEFTNTMDVRASLHVHGLDYEISSDGTAMNKSDVEPGGTRTYTWRTHKPGRRDDGTWRPGSAGYWHYHDHVVGTEHGTGGIRNGLYGPVIVRRKGDVLPDATHTIVFNDMTINNRKPHTGPDFEATVGDRVEIVMITHGEYYHTFHMHGHRWADNRTGILTGPDDPSRVIDNKITGPADSFGFQIIAGEGVGAGAWMYHCHVQSHSDMGFVGLFLVKKPDGTIPGYEPHEHGGATAKSGESGEPTGGAAAHEHEH
notes: as for B1
Purified protein [2]; [4]
  Km: 0.4(1) mM
  kcat: 0.19(3) s-1

B3: ScSLAC (Streptomyces coelicolor A3(2); M298L) (protein)
chain: APAAKGITARTAPAGGEVRHLKMYAEKLADGQMGYGFEKGKASVPGPLIEVNEGDTLHIEFTNTMDVRASLHVHGLDYEISSDGTAMNKSDVEPGGTRTYTWRTHKPGRRDDGTWRPGSAGYWHYHDHVVGTEHGTGGIRNGLYGPVIVRRKGDVLPDATHTIVFNDMTINNRKPHTGPDFEATVGDRVEIVMITHGEYYHTFHMHGHRWADNRTGILTGPDDPSRVIDNKITGPADSFGFQIIAGEGVGAGAWMYHCHVQSHSDMGLVGLFLVKKPDGTIPGYEPHEHGGATAKSGESGEPTGGAAAHEHEH
notes: as for B1
Purified protein [2]; [4]
  Km: 1.19(7) mM
  kcat: 0.32(1) s-1

B4: ScSLAC (Streptomyces coelicolor A3(2); M296W/S292P) (protein)
chain: APAAKGITARTAPAGGEVRHLKMYAEKLADGQMGYGFEKGKASVPGPLIEVNEGDTLHIEFTNTMDVRASLHVHGLDYEISSDGTAMNKSDVEPGGTRTYTWRTHKPGRRDDGTWRPGSAGYWHYHDHVVGTEHGTGGIRNGLYGPVIVRRKGDVLPDATHTIVFNDMTINNRKPHTGPDFEATVGDRVEIVMITHGEYYHTFHMHGHRWADNRTGILTGPDDPSRVIDNKITGPADSFGFQIIAGEGVGAGAWMYHCHVQPHSDWGMVGLFLVKKPDGTIPGYEPHEHGGATAKSGESGEPTGGAAAHEHEH
notes: as for B1
Purified protein [1]; 500 µM CuCl2, air O2
  Km: 0.144(5) mM
  kcat: 0.405(4) min-1
